Results reported in the supplement of paper PMC9112550, “Optimization of the antimicrobial peptide Bac7 by deep mutational scanning” (BMC Biology, 2022).

Tested on: Escherichia coli TOP10
Assay: shrunken log2 fold change of peptide-encoding DNA abundance (4.5 h post-induction vs induction); higher = less antimicrobial activity (less host growth inhibition)
Conditions: time post-induction: 4.5 h; library: site-saturation at positions 5, 18, 19, 20
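Further: peptides expressed intracellularly from a pBAD plasmid library in pooled LB shake-flask culture, induced with 0.3% L-arabinose, DNA abundance read by NGS, three biological replicates, DESeq2 with apeglm shrinkage.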

Row | Sequence | shrunken log2 fold change
1 | RRIRCRPPRLPRPRPRPFENPRP | -0.0274
2 | RRIRCRPPRLPRPRPRPGGAPRP | 0.462
3 | RRIRCRPPRLPRPRPRPCMCPRP | -0.668
4 | RRIRLRPPRLPRPRPRPVQLPRP | 0.0978
5 | RRIRFRPPRLPRPRPRPLEGPRP | 0.0031
6 | RRIRSRPPRLPRPRPRPALEPRP | 0.407
7 | RRIRMRPPRLPRPRPRPLIVPRP | 1.71
8 | RRIRLRPPRLPRPRPRPDRYPRP | -0.063
9 | RRIRGRPPRLPRPRPRPGQEPRP | 0.974
10 | RRIRYRPPRLPRPRPRPKYFPRP | -0.314
11 | RRIRYRPPRLPRPRPRPSMVPRP | -0.858
12 | RRIRLRPPRLPRPRPRPIKSPRP | -0.202
13 | RRIRERPPRLPRPRPRPVHEPRP | -0.00127
14 | RRIRTRPPRLPRPRPRPVDDPRP | -0.018
15 | RRIRVRPPRLPRPRPRPCDDPRP | -0.0369
16 | RRIRNRPPRLPRPRPRPGDVPRP | -0.0732
17 | RRIRSRPPRLPRPRPRPSTVPRP | -0.353
18 | RRIRTRPPRLPRPRPRPCYKPRP | -0.06
19 | RRIRQRPPRLPRPRPRPCMGPRP | -0.124
20 | RRIRRRPPRLPRPRPRPLYNPRP | -0.295
21 | RRIRGRPPRLPRPRPRPYEHPRP | 0.256
22 | RRIRGRPPRLPRPRPRPKYPPRP | 0.0365
23 | RRIRKRPPRLPRPRPRPQTYPRP | -0.021
24 | RRIRWRPPRLPRPRPRPYISPRP | -0.816
25 | RRIRGRPPRLPRPRPRPVMLPRP | 0.317

Row | Sequence | shrunken log2 fold change
26 | RRIRSRPPRLPRPRPRPWWLPRP | 0.0261
27 | RRIRIRPPRLPRPRPRPKSIPRP | -0.14
28 | RRIRSRPPRLPRPRPRPQELPRP | -0.107
29 | RRIRDRPPRLPRPRPRPFLHPRP | 0.204
30 | RRIRQRPPRLPRPRPRPVECPRP | 0.0104
31 | RRIRNRPPRLPRPRPRPGYLPRP | 0.114
32 | RRIRIRPPRLPRPRPRPEWDPRP | 0.054
33 | RRIRRRPPRLPRPRPRPGEFPRP | -0.0272
34 | RRIRDRPPRLPRPRPRPWTAPRP | -0.0482
35 | RRIRSRPPRLPRPRPRPHLMPRP | -0.0307
36 | RRIRQRPPRLPRPRPRPDMLPRP | 0.0939
37 | RRIRLRPPRLPRPRPRPPMEPRP | 0.347
38 | RRIRMRPPRLPRPRPRPYNFPRP | -0.363
39 | RRIRGRPPRLPRPRPRPKNLPRP | 0.121
40 | RRIRARPPRLPRPRPRPMEDPRP | -0.0391
41 | RRIRARPPRLPRPRPRPVCAPRP | 0.571
42 | RRIRTRPPRLPRPRPRPGFSPRP | -0.016
43 | RRIRHRPPRLPRPRPRPFLMPRP | -0.456
44 | RRIRTRPPRLPRPRPRPRRYPRP | 0.108
45 | RRIRTRPPRLPRPRPRPQCGPRP | -0.0173
46 | RRIRTRPPRLPRPRPRPLPTPRP | 0.368
47 | RRIRWRPPRLPRPRPRPRDMPRP | -0.255
48 | RRIRRRPPRLPRPRPRPYNYPRP | -0.501
49 | RRIRLRPPRLPRPRPRPEEAPRP | 0.495
50 | RRIRGRPPRLPRPRPRPIASPRP | 0.524

Row | Sequence | shrunken log2 fold change
51 | RRIRHRPPRLPRPRPRPSVKPRP | -0.364
52 | RRIRNRPPRLPRPRPRPVWIPRP | -0.111
53 | RRIRGRPPRLPRPRPRPMLAPRP | 1.9
54 | RRIRYRPPRLPRPRPRPSDIPRP | -0.0657
55 | RRIRYRPPRLPRPRPRPIFDPRP | -0.737
56 | RRIRMRPPRLPRPRPRPMRVPRP | 0.035
57 | RRIRGRPPRLPRPRPRPNRNPRP | 0.00949
58 | RRIRVRPPRLPRPRPRPAERPRP | -0.0583
59 | RRIRCRPPRLPRPRPRPYNVPRP | -0.434
60 | RRIRIRPPRLPRPRPRPLCRPRP | -0.289
61 | RRIRTRPPRLPRPRPRPYMLPRP | -1.13
62 | RRIRVRPPRLPRPRPRPCLKPRP | -0.469
63 | RRIRQRPPRLPRPRPRPQIRPRP | -0.307
64 | RRIRGRPPRLPRPRPRPETHPRP | 2.22
65 | RRIRVRPPRLPRPRPRPPTMPRP | 0.0704
66 | RRIRRRPPRLPRPRPRPDYFPRP | -0.0877
67 | RRIRRRPPRLPRPRPRPDKDPRP | 0.00839
68 | RRIRYRPPRLPRPRPRPWKIPRP | -0.245
69 | RRIRSRPPRLPRPRPRPTQHPRP | 0.376
70 | RRIRVRPPRLPRPRPRPIFDPRP | -0.0222
71 | RRIRFRPPRLPRPRPRPETDPRP | 0.114
72 | RRIRCRPPRLPRPRPRPIPIPRP | -0.0907
73 | RRIRYRPPRLPRPRPRPITLPRP | -0.323
74 | RRIRSRPPRLPRPRPRPPGLPRP | 0.348
75 | RRIRIRPPRLPRPRPRPEDGPRP | -0.00203
